Laboratory results from the supplement of paper PMC12764529.
± gives the half width of the 95% confidence interval.

assay: folding stability dG unfold from trypsin proteolysis; higher = more stable
In short: (§1)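 Mini-proteins designed to be under 80 residues and free of cysteine were carried in a PA-tagged cDNA display construct and digested with trypsin and with chymotrypsin. Each protease was applied at 11 threefold-diluted concentrations, alongside a no-protease condition, before sequencing. K50 came from Bayesian fitting of the sequencing counts, and unfolding free energy was obtained by comparing it with a sequence-predicted unfolded-state K50 and a shared folded-state K50, for each protease separately or for both together. Designs were retained only if their AlphaFold2 dimer inter-PAE exceeded 15.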

| Sequence | folding stability dG unfold |
| --- | --- |
| SMSVSTSTEKLPTDLYITEKEIKIEPVDPTKNVYRVTVKTTIVDKNGNVVKEEEKEEIIPLSELEKRIKSSA [r9_234_JUSTAS] | 1.2 ± 0.085 kcal/mol |
| SAGGSAGGSAGMTTLTVTVPAPPDALTPEDVVALLRPEYPDATITVTREGDTLVVTVTVASAGGSAGGSAGG [r11_7_JUSTAS] | 3.31 ± 0.058 kcal/mol |
| SAMVLRIKVEVNGETKEIEIELPPNAKIEKKDGELTIYVKNPETGKIFKFKFKKNAKIVEVEEVDPEDLSAG [r14_313_TrROS_Hall] | 2.6 ± 0.046 kcal/mol |
| SAFRIKIELWNPNGKPQEHTFPVPPGDPDKLVEEIEDEVQKHHPNDGYKMRAEILEVTPNGWVTIRIWYSAG [r14_622_TrROS] | 2.66 ± 0.077 kcal/mol |
| SAGGSAGGSAGMEFEVLEVIPPELLAEGGEITVGLPDGERLLVRVSPDGGVKEVRLLPPESAGGSAGGSAGG [r17_2_TrMRF] | 0.811 ± 0.12 kcal/mol |
| SAGGSAGGSAGGMTAKEIAEKLGLPPGAKVVKIEYDKETNTFYIVIEVDGELKTYRIDVSAGGSAGGSAGGS [r10_17_TrROS_Hall] | 4.2 ± 0.14 kcal/mol |
| SAGGSAGGSAGMAIGLEEILARLDPERIISVEVDEENPLVTVKLRPPSGETKTITFKLSLSAGGSAGGSAGG [r17_374_JUSTAS] | 1.21 ± 0.03 kcal/mol |
| SAGGSAGGSPNPKNVKIYLVALDPDKPEVVAEASFNITVDTEEELEAILKELVPLFPGAKVFASAGGSAGGS [r12_1043_TrMRF] | 0.853 ± 0.086 kcal/mol |
| SSPEEMAEKLAKELNFDKIEIKTEKLDLPSGPSEATVATAKLYNPATGKEYVVKILKFPDGSYEIVIEKKSA [r9_724_JUSTAS] | 1.44 ± 0.042 kcal/mol |
| SAGGDIKFEIGLELLPDGILVIRGSVEVRMGGQSVTYEFIIIVKIKPIPPPPPPPKPKYNPEDGKWKSAGGS [r8_269_TrROS] | 2.32 ± 0.076 kcal/mol |
| SAGGPTVVLRVRDADGNLVTVTFDEETKRITVTVVRDGKTRTLTVDMTVDEAIARLRDLFPVEVELVPSAGG [r13_141_TrROS_Hall] | 2.42 ± 0.051 kcal/mol |
| SAGGSMIPRLEERVLEVEVDSEEEAEKLKKELKEKIEKEHPGVEVKFELRKLPNGKYLLTITVVIPILSAGG [r13_17_JUSTAS] | 2.89 ± 0.058 kcal/mol |
| SEMSVEEILKKIAEELLKKNPNKEVTKEIEIEFEKPDPEGKRLLKEKVKATIKVTPDKIEILSESREILLSA [r9_361_JUSTAS] | 1.52 ± 0.066 kcal/mol |
| SAGGSAGGSAGGSKPKVKITIEKNKETNEYTITIEKDGKKYTFVVKNLKPDDPAIKKALSAGGSAGGSAGGS [r4_328_TrROS_Hall] | 1.1 ± 0.043 kcal/mol |
| SAGGSAGGSAMPLEKVIKNLTSSGSVESLKEKLAKEYGVEKVEVTKDPNSDTYSAKVFLKKPSAGGSAGGSA [r18_275_JUSTAS] | -0.147 ± 0.18 kcal/mol |
| SAGGSAGGSAGGKVVKKVKVLTKTPKGGYKVIEVDFTDPSAVVEEAKKAGLEVLKVEEVSAGGSAGGSAGGS [r10_882_TrMRF] | -0.045 ± 0.079 kcal/mol |
| SAGGSAGGSAMSVTATVPEKPVTLTYIPPNTVTKTVIDPSTGTTTTTEVNLPPGVVPASLLLSAGGSAGGSA [r18_59_JUSTAS] | 0.313 ± 0.05 kcal/mol |
| SAGGSAGGSAGGSSMITVSTTSFPDGTRKVTITEPGTGKPLKTVDMPPSESVSAVKEKLSSAGGSAGGSAGG [r7_633_JUSTAS] | -0.012 ± 0.1 kcal/mol |
| SAGGSAGGSAGGKKTIVIEINGKKYTITRIEFDKDTKKITIEIEFNGKKLKIEIELPKNLSAGGSAGGSAGG [r7_477_TrROS_Hall] | 2.17 ± 0.078 kcal/mol |
| SAGMETVVTYDPSNGTVTTTTTVFAPDGTPLGSLSTTTPIGGGTITYTTITIDPETGTVTTTTTAYPGASAG [r5_34_JUSTAS] | 2.77 ± 0.093 kcal/mol |
| SAGGSAGGSAGKMYKLTIEKDGKEIEIIVSEDELKEIAKKLGLPPNAKIKVEKVSPEELKSAGGSAGGSAGG [r17_395_TrROS_Hall] | 2.21 ± 0.095 kcal/mol |

assay: folding stability dG unfold from chymotrypsin proteolysis; higher = more stable
In short: as §1

| Sequence | folding stability dG unfold |
| --- | --- |
| SAGGSAGGSMNVSPEELEALARERIEALLAENPDVPRDDVVLEFEGRSESPGKVITLTLRVRASAGGSAGGS [r12_707_JUSTAS] | -0.00174 ± 0.23 kcal/mol |
| SAGGKTKVIVVKVKPEMTVEEIAKKLAEELKKKGKKVKVEVKVIEKLPNGELYVKVTVKDGKLTIEPSAGGS [r8_7_TrROS_Hall] | 1.42 ± 0.073 kcal/mol |
| SAGGSAGGEIEILPGAKIVRVERRKDGSLLIVVEVDGKLYLFRFKDGKVEVIELPEGASLEELLSAGGSAGG [r6_680_TrROS_Hall] | 4.99 ± 0.086 kcal/mol |
| SAGGSAGGSAGGVGKDKPVIIKIKIKRKVYGLNTPELIAEEEEEIVVVVHPDVNPEKIKPSAGGSAGGSAGG [r7_591_TrMRF] | 2.34 ± 0.056 kcal/mol |
| SAGSITTTDGNISRSVTYIPGLNLYLVTSTYPTSVSVDLVTEEGGTLTTTPVSTTPLPLPASSLSTTASAGG [r19_328_JUSTAS] | -0.16 ± 0.15 kcal/mol |
| SAGGSAGGGSMGSVSVSETTTTSTEGSTTTTTTVHTTTVGGTTTTTTTTTTTSPTPGASSPATASAGGSAGG [r6_684_JUSTAS] | 1.71 ± 0.043 kcal/mol |
| SAGGSAGGSAGGNITVTEDGWIVIEIPYYSPDGGPSPITIVIPIPKMPPEEAEELADKGSAGGSAGGSAGGS [r10_1096_TrROS] | 1.04 ± 0.14 kcal/mol |
| SAGGSAGGSAGSYTVTPITLKLPDGTEVDAVLTTDPAGNVTLTLTGDSPLSTLTFPASTLSAGGSAGGSAGG [r11_327_JUSTAS] | 1.6 ± 0.039 kcal/mol |
| SAGGMLTGTLVDPVEGIRYTSFYDPSKPSSSITPKPIPPVPPVSLEELAERLRAATGLSREEVLALLESAGG [r13_824_JUSTAS] | 0.396 ± 0.13 kcal/mol |
| SAGGSAGGMTITLTLPDGTVITITVSRPGSPTTVVSVKAERPARGGTDIPEEVAKELAEKILKESAGGSAGG [r6_235_JUSTAS] | 2.96 ± 0.11 kcal/mol |
| SGISNEEIKKILEEIAKEYPGLKIEIKPGTEPSVAKGPKAVVTLTRKPGYLEITITFPETGETTTIPIPPSA [r9_1062_JUSTAS] | 2.721 ± 0.02 kcal/mol |
| SAGGSAIWIPVDEIRDLLKEFGIDVTVERHPNDGWVEIEIKMRRPNGKKHPIKIWVHPDGYIRIEPSAGGSA [r15_1051_TrROS] | 4.42 ± 0.15 kcal/mol |
| SMPEIKVEKKNGKLTITVPKGAKIKIKIEVNGKKIEKEVEVKEGETVTITIELPPNMPKDVKIKEIEIEKSA [r9_1152_TrROS_Hall] | 1.93 ± 0.13 kcal/mol |
| SAGGSAGGSAGEGLKVTVTVSGELDPEKGGLSLRVEIRVEPVLIPPPVLPPAADNLSNLLSAGGSAGGSAGG [r17_454_TrMRF] | 0.912 ± 0.079 kcal/mol |
| SAGGSAGGPLPLEELRRLLESRPDYEILSVEDESPDYVVVTVRFPFPLPSDEERTLRLRLRFPLSAGGSAGG [r6_152_TrMRF] | 3.374 ± 0.031 kcal/mol |
| SAGGSAGGSIRRDENGNFRVRIKVRFPGNGRKRTIEIPFDNATLEEIRKQAIDHGIRPIEIIPSAGGSAGGS [r12_792_TrROS] | 1.35 ± 0.053 kcal/mol |
| SAGGSANFNVKLEIKIIERNPGNPDYVIVRIKVEHRHPNPDGNPMEHRRPIPWIMITDPEEIKEFISAGGSA [r15_1019_TrROS] | 2.39 ± 0.029 kcal/mol |
| SAGPKKKVEIDVHIMIPFKSWEDRELMLYYARKFAPYIARELAKQNGLPPGVDEVKVDVNIMIIPPGQMSAG [r5_436_TrROS] | 3.87 ± 0.04 kcal/mol |
| SAGGSAGGSMETITLPEDVKVEVVEVEPGSVIEVEFEDGLVARVRIDPENLEKVEIEVFPKEESAGGSAGGS [r12_648_TrROS_Hall] | 0.826 ± 0.16 kcal/mol |
| SAGGSAGGSMEVTVTPLPDGSLLVTVTVTTSSTPVPVELRFPPSASLEEIRAAAEARAAEVAASAGGSAGGS [r12_69_JUSTAS] | 1.73 ± 0.025 kcal/mol |
| SAGGSASMPLTLTFTTPTRTFTVTIPPSKVSSVTVEEKGPTITVTVEAPDSTITINITPSSVTISASAGGSA [r15_598_JUSTAS] | 4.19 ± 0.13 kcal/mol |

| Sequence | folding stability dG unfold |
| --- | --- |
| SMSVSTSTEKLPTDLYITEKEIKIEPVDPTKNVYRVTVKTTIVDKNGNVVKEEEKEEIIPLSELEKRIKSSA [r9_234_JUSTAS] | 1.61 ± 0.1 kcal/mol |
| SAGGSAGGSAGMTTLTVTVPAPPDALTPEDVVALLRPEYPDATITVTREGDTLVVTVTVASAGGSAGGSAGG [r11_7_JUSTAS] | 2.39 ± 0.033 kcal/mol |
| SAMVLRIKVEVNGETKEIEIELPPNAKIEKKDGELTIYVKNPETGKIFKFKFKKNAKIVEVEEVDPEDLSAG [r14_313_TrROS_Hall] | 4.22 ± 0.052 kcal/mol |
| SAFRIKIELWNPNGKPQEHTFPVPPGDPDKLVEEIEDEVQKHHPNDGYKMRAEILEVTPNGWVTIRIWYSAG [r14_622_TrROS] | 3.01 ± 0.11 kcal/mol |
| SAGGSAGGSAGMEFEVLEVIPPELLAEGGEITVGLPDGERLLVRVSPDGGVKEVRLLPPESAGGSAGGSAGG [r17_2_TrMRF] | -0.435 ± 0.22 kcal/mol |
| SAGGSAGGSAGGMTAKEIAEKLGLPPGAKVVKIEYDKETNTFYIVIEVDGELKTYRIDVSAGGSAGGSAGGS [r10_17_TrROS_Hall] | 4.765 ± 0.037 kcal/mol |
| SAGGSAGGSAGMAIGLEEILARLDPERIISVEVDEENPLVTVKLRPPSGETKTITFKLSLSAGGSAGGSAGG [r17_374_JUSTAS] | 0.669 ± 0.11 kcal/mol |
| SAGGSAGGSPNPKNVKIYLVALDPDKPEVVAEASFNITVDTEEELEAILKELVPLFPGAKVFASAGGSAGGS [r12_1043_TrMRF] | 1.25 ± 0.12 kcal/mol |
| SSPEEMAEKLAKELNFDKIEIKTEKLDLPSGPSEATVATAKLYNPATGKEYVVKILKFPDGSYEIVIEKKSA [r9_724_JUSTAS] | 2.627 ± 0.015 kcal/mol |
| SAGGDIKFEIGLELLPDGILVIRGSVEVRMGGQSVTYEFIIIVKIKPIPPPPPPPKPKYNPEDGKWKSAGGS [r8_269_TrROS] | 2.89 ± 0.11 kcal/mol |
| SAGGPTVVLRVRDADGNLVTVTFDEETKRITVTVVRDGKTRTLTVDMTVDEAIARLRDLFPVEVELVPSAGG [r13_141_TrROS_Hall] | 3.05 ± 0.014 kcal/mol |
| SAGGSMIPRLEERVLEVEVDSEEEAEKLKKELKEKIEKEHPGVEVKFELRKLPNGKYLLTITVVIPILSAGG [r13_17_JUSTAS] | 3.93 ± 0.041 kcal/mol |
| SEMSVEEILKKIAEELLKKNPNKEVTKEIEIEFEKPDPEGKRLLKEKVKATIKVTPDKIEILSESREILLSA [r9_361_JUSTAS] | 1.07 ± 0.054 kcal/mol |
| SAGGSAGGSAGGSKPKVKITIEKNKETNEYTITIEKDGKKYTFVVKNLKPDDPAIKKALSAGGSAGGSAGGS [r4_328_TrROS_Hall] | 3.007 ± 0.03 kcal/mol |
| SAGGSAGGSAMPLEKVIKNLTSSGSVESLKEKLAKEYGVEKVEVTKDPNSDTYSAKVFLKKPSAGGSAGGSA [r18_275_JUSTAS] | -0.0178 ± 0.31 kcal/mol |
| SAGGSAGGSAGGKVVKKVKVLTKTPKGGYKVIEVDFTDPSAVVEEAKKAGLEVLKVEEVSAGGSAGGSAGGS [r10_882_TrMRF] | 1.05 ± 0.094 kcal/mol |
| SAGGSAGGSAMSVTATVPEKPVTLTYIPPNTVTKTVIDPSTGTTTTTEVNLPPGVVPASLLLSAGGSAGGSA [r18_59_JUSTAS] | -0.191 ± 0.13 kcal/mol |
| SAGGSAGGSAGGSSMITVSTTSFPDGTRKVTITEPGTGKPLKTVDMPPSESVSAVKEKLSSAGGSAGGSAGG [r7_633_JUSTAS] | -0.67 ± 0.2 kcal/mol |
| SAGGSAGGSAGGKKTIVIEINGKKYTITRIEFDKDTKKITIEIEFNGKKLKIEIELPKNLSAGGSAGGSAGG [r7_477_TrROS_Hall] | 3.31 ± 0.16 kcal/mol |
| SAGMETVVTYDPSNGTVTTTTTVFAPDGTPLGSLSTTTPIGGGTITYTTITIDPETGTVTTTTTAYPGASAG [r5_34_JUSTAS] | 4.49 ± 0.086 kcal/mol |
| SAGGSAGGSAGKMYKLTIEKDGKEIEIIVSEDELKEIAKKLGLPPNAKIKVEKVSPEELKSAGGSAGGSAGG [r17_395_TrROS_Hall] | 3.8 ± 0.14 kcal/mol |
